Assay [1] has as its target T1, hiR2-FL-P533-T7 (human iRhom2 full length with deletion of P533, 3 x T7 tag) (human, UniProt Q6PJF5 1-856).
T1 construct: The change is a deletion of one residue, not a substitution
T1 sequence: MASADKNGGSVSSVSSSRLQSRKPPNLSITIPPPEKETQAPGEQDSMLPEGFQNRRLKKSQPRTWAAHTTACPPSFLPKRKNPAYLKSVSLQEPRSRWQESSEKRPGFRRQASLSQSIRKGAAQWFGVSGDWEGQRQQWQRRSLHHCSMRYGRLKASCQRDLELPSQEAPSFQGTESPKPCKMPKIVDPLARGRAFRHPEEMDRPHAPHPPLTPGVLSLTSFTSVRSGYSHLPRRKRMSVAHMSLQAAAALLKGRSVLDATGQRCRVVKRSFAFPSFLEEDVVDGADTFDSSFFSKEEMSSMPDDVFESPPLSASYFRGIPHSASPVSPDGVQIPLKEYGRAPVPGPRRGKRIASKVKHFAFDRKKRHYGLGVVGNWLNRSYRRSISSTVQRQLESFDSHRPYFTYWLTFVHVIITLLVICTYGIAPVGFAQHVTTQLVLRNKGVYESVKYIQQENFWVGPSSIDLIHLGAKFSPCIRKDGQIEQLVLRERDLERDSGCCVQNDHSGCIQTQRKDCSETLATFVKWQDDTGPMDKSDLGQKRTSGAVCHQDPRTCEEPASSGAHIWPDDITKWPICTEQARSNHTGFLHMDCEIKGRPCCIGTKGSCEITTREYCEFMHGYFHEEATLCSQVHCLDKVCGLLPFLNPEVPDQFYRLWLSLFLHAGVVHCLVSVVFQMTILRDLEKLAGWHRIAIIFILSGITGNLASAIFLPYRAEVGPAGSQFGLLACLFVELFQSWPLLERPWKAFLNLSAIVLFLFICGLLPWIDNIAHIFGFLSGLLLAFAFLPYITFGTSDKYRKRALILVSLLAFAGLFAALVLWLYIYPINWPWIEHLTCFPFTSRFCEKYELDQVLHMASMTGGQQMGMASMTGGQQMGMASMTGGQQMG
Kind of assay: FACS on MEF-DKO-hiR2-FL-P533- -T7 cells.

The target of assay [2] is T2, hiR2-FL-K536A-T7 (human iRhom2 full length K536A, 3 x T7 tag) (human, UniProt Q6PJF5 1-856).
T2 sequence: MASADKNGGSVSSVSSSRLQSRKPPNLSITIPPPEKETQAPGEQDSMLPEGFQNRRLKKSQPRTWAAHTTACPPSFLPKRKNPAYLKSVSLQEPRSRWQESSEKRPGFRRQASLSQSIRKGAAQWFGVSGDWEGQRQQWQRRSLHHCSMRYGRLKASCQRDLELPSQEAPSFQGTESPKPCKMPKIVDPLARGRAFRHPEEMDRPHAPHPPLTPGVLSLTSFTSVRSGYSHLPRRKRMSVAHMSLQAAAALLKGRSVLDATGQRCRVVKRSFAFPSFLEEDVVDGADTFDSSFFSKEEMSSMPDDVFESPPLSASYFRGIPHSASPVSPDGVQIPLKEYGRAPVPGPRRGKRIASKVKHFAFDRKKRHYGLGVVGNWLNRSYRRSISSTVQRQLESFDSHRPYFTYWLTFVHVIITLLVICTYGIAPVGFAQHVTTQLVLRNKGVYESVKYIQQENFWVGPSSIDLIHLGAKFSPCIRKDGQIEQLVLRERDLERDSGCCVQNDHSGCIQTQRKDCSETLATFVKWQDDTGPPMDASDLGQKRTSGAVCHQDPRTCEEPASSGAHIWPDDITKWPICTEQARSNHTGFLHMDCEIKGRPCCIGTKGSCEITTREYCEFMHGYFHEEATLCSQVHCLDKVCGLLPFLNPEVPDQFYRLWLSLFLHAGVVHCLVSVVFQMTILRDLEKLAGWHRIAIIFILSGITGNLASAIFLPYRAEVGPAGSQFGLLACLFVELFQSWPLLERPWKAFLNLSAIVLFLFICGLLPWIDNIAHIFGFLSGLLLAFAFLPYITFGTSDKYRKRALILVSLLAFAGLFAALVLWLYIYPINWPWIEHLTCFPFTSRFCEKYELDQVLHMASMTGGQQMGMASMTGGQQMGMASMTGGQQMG
As to the kind of experiment: FACS on MEF-DKO-hiR2-FL-K536A-T7 cells, PE anti-mouse IgG F(ab')2 detection.

B1: antibody 3 (antibody, V domains shown)
VH: QVTLKESGPGILQPSQTLSLTCSFSGFSLTTFAMGIGWVRQPSGKGLEWLAHIWWDGEKYNNPVLKSRLTISKDTSKNQVFLRIANVDTPDTATYYCARISSIYYIIDNWGQGTSVTVSS
VL: DIVLTQSPATLSVTPGHSVSLSCRASQSISNNLHWYQKKSHESPRLLIKYVSQSISGIPSRFSGSGSGTDFTLSINSVETEDFGMYFCQQSYNWPLTFGAGTKLELK
notes: Mouse IgG, kappa light chain; also called clone #3; purified antibody 3
Take B1: in assay [1], the binding result was “no binding (tested: 3 µg/ml)”.

B2: antibody 5 (antibody, V domains shown)
VH: QVTLKESGPGILQPSQTLSLTCSFSGFSLSTFGMGVGWIRQPSGKGLEWLAHIWWDDEKYYNSALKSRLTISKATSKNQAFLKIANVDTADTATYYCARISNYGSNYWYFNVWGTGTTVTVSS
VL: QVVLTQSPALMSASPGEKVTMTCSAGSSVSCMYWYQQKPGSSPRVLIYDTSNLASGVPARFTGSGSGTSYSLTISRMEAEDAASYYCQQWNSYPLTFGAGTKLELK
notes: Mouse IgG, kappa light chain; also called clone #5; purified antibody 5
Regarding B2, the binding result in assay [2] is reported as “no binding (tested: 3 µg/ml)”.
